Experiment [1] addresses T1, human LEPR, full length, on HEK293-STAT3Luc-hLepR1 cells (Homo sapiens, UniProt P48357 22-1165).
T1 construct: also called human LEPR on live cell surface
T1 sequence: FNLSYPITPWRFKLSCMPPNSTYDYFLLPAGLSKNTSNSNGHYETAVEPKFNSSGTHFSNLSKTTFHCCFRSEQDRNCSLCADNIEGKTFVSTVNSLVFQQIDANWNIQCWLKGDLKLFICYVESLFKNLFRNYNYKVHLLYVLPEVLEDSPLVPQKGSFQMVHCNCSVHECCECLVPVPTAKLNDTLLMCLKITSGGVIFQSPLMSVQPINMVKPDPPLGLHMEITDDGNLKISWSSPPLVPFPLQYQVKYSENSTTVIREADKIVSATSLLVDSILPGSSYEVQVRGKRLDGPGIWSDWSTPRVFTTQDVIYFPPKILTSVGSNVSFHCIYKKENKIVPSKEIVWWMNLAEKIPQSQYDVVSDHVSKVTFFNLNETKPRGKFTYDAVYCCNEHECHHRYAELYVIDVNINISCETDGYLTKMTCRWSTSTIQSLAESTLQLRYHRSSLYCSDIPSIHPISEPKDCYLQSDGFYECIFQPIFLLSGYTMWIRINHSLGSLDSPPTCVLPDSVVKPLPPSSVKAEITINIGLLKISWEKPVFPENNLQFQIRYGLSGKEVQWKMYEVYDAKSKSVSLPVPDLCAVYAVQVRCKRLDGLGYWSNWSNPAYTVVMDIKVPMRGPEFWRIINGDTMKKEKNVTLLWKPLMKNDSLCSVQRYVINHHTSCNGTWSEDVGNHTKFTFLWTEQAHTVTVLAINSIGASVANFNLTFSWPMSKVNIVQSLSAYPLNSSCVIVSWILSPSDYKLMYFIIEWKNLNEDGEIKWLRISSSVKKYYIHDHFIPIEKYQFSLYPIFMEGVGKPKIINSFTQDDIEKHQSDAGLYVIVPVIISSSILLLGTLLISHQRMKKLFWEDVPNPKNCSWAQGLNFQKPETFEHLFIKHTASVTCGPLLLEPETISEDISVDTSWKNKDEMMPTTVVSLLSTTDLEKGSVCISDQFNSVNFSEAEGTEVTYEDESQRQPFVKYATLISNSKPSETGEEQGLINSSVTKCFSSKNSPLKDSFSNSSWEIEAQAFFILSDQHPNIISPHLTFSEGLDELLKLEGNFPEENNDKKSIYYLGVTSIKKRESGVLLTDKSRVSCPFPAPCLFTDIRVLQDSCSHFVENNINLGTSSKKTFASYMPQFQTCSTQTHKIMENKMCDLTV
As to the kind of experiment: flow cytometry on live HEK293-STAT3Luc-hLepR1 cells, AF647 anti-human IgG; average of 4 runs, SD 1.7.
Description: Cells were incubated in blocking buffer for 10 mins at room temperature. After one rinse with PBS, cells were transferred to U-bottom 96-well plate at 200 μL and 0.2˜0.26^e6 cells/well. […] Cells were then incubated with 30 μL/well of antibodies diluted in flow buffer at 1000 nM as high dose followed by 9-point dose response including 5-fold dilutions not including 0 (totaling 9 concentrations for each Antibody) for 30 minutes at 4° C. in dark.

In the next experiment the target is T2, canine LEPR-ECD-His (canine).
T2 chain: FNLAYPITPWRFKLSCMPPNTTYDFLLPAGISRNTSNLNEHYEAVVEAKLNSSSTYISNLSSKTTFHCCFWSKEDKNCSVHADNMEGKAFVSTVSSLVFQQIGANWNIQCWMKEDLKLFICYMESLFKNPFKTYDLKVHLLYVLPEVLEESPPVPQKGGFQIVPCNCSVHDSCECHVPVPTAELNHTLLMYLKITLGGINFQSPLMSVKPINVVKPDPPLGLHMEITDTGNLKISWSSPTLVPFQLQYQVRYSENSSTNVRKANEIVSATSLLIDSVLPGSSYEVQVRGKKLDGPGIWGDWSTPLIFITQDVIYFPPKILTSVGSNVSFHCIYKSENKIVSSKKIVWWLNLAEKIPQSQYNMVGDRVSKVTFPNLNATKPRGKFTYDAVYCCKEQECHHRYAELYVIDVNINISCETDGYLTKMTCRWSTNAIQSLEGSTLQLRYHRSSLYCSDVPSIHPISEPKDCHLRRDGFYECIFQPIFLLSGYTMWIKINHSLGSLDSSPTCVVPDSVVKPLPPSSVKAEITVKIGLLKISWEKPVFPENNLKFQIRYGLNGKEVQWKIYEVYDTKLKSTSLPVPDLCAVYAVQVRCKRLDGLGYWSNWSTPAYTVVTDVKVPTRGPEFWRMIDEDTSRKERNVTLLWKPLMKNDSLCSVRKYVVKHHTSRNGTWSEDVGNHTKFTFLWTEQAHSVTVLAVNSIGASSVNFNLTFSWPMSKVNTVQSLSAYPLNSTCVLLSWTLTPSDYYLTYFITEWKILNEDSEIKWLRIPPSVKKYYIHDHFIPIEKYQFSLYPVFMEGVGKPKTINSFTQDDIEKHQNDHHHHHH
As to the kind of experiment: SPR (Biacore T200), antibody captured on Protein A/G chip, His-tagged LEPR-ECD as analyte, 1:1 fit; mean n=3, SD 2.4E-8.

The target in the next experiment is T3, CYNO LEPR-ECD-His (cynomolgus monkey, UniProt Q9MYL0 22-837 (rhesus entry)).
T3 construct: also called cynomolgus monkey LEPR
T3 sequence: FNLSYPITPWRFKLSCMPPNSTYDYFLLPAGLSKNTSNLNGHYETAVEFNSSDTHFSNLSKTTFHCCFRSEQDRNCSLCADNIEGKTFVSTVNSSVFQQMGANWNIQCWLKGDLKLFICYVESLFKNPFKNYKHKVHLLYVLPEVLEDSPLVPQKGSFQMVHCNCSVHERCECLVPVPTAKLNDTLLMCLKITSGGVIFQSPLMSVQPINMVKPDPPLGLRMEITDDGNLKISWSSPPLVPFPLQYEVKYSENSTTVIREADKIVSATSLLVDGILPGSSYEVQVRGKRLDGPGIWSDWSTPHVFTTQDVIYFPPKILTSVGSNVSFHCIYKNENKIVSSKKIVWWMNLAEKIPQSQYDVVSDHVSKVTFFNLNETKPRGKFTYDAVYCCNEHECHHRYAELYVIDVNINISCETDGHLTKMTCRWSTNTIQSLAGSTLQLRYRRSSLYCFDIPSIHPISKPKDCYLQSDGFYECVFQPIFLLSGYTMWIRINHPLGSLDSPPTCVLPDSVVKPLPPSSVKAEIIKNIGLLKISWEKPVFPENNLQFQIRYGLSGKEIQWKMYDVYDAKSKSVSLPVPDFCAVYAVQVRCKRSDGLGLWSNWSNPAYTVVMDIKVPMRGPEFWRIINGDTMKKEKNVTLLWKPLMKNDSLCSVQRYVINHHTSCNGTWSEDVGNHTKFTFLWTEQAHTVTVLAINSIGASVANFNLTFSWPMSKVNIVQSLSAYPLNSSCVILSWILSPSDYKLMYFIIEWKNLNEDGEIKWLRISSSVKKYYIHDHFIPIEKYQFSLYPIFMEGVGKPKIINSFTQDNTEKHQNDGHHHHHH
As to the kind of experiment: SPR (Biacore T200), antibody captured on Protein A/G chip, His-tagged LEPR-ECD as analyte, 1:1 fit; mean n=4, SD 1.7E-8. For orientation: SPR reads the build-up and loss of mass on a sensor chip optically.

The term EC50 denotes the concentration needed to bring the measured effect to its halfway point. Low readings indicate higher potency in that assay, high ones lower potency in that assay. The term Kd denotes the constant that tells how readily two partners part at equilibrium. A higher Kd goes with a looser complex.

Description for CYNO LEPR-ECD-His: (§1) His-tagged ECDs were expressed and purified for each species and used for affinity analysis. A Protein A/G chip (Xantec, Cat #PAGHC200M) was utilized in this experiment with HBS-EP +0.01% BSA as running buffer. Antibodies were diluted to 1 μg/mL in running buffer and captured to a single flow cell on the chip surface. Each species of LEPR-ECD was diluted to 1000 nM in running buffer followed by 2-fold serial dilution. Each ligand concentration was injected over all flow cells at 100 L/min for 150 seconds followed by a 600 second dissociation phase. Regeneration was performed by injecting 10 mM glycine pH1.5 for 30 seconds at 10 μL/min. Data were analyzed in Biacore T200 Evaluation Software 3.1 by flow-cell 1 reference subtraction along with 0 nM blank subtraction. Data were fit globally using a “1:1 Binding” binding model to determine the on-rate (kₐ) and off-rate (kd) for each ligand. The affinity (KD) was calculated from the binding kinetics according to the relationship KD=kₐ/kd. Data reported as mean±standard deviation of experimental replicates.
Description for canine LEPR-ECD-His: as §1

B1: Antibody A (antibody, human IgG1, kappa, L234A L235A)
heavy: EVQLLESGGGLVQPGGSLRLSCAASGFTFSSFAMSWVRQAPGKGLEWVSAISGSGGSTYSADSVRGRFTISRDNSKNTLYLQMNSLRAEDTAVYYCAKDQGDWDFLFDYWGQGTLVTVSSASTKGPSVFPLAPSSKSTSGGTAALGCLVKDYFPEPVTVSWNSGALTSGVHTFPAVLQSSGLYSLSSVVTVPSSSLGTQTYICNVNHKPSNTKVDKRVEPKSCDKTHTCPPCPAPEAAGGPSVFLFPPKPKDTLYITREPEVTCVVVSVSHEDPEVKFNWYVDGVEVHNAKTKPREEQYNSTYRVVSVLTVLHQDWLNGKEYKCKVSNKALPAPIEKTISKAKGQPREPQVYTLPPSREEMTKNQVSLTCLVKGFYPSDIAVEWESNGQPENNYKTTPPVLDSDGSFFLYSKLTVDKSRWQQGNVFSCSVMHEALHNHYTQKSLSLSPGK
light: DIQMTQSPSFLSASVGDRVTITCRASQGISSSLAWYQQKPGKAPKLLIYTASTLQSGVPSRFSGSGSGTEFTLTISSLQPEDFATYYCQQLIYYPFTFGQGTKVEIKRTVAAPSVFIFPPSDEQLKSGTASVVCLLNNFYPREAKVQWKVDNALQSGNSQESVTEQDSKDSTYSLSSTLTLSKADYEKHKVYACEVTHQGLSSPVTKSFNRGEC
notes: IgG1 mAb
In turn, B1 came in with an EC50 in experiment [1] of 2.45 nM. In addition, the Kd with canine LEPR-ECD-His worked out at 130 nM.

B2: Antibody B (antibody, human IgG1, kappa, L234A L235A, V domains shown)
VH: EVQLLESGGGLVQPGGSLRLSCAASGFTFSSFAMSWVRQAPGKGLEWVSAISGSGGSTYSADSVRGRFTISRDNSKNTLYLQMNSLRAEDTAVYYCAKDQGDWDFLFDYWGQGTLVTVSS
VL: DIQMTQSPSFLSASVGDRVTITCRVSQGISSSLAWYQQKPGKAPKLLIYTASTLQSGVPSRFSGSGSGTEFTLTISSLQPEDFATYYCQQLNYYPFTFGQGTKVEIKR
For B2, in the experiment with CYNO LEPR-ECD-His, the affinity, expressed as Kd, was 32 nM.

Source of the values: patent US20250289897A1 (Eli Lilly, published 2025).
